Legend:
Assay in all cases: EMSA
[1] = system: T1, Dcp1 (Saccharomyces cerevisiae); conditions: EMSA: 10 nM Alexa Fluor 647 RPL41A RNA, 300 mM KOAc, 10 mM MES pH 7 or 5.8, 5 mM BME; temperature not given in material
T1 sequence: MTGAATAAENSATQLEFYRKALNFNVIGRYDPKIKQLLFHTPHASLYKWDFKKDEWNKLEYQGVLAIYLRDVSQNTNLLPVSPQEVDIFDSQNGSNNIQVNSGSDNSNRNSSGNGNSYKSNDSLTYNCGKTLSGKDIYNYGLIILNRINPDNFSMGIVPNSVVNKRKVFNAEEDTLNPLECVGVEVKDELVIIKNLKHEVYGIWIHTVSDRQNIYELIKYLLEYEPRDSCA

[2] = system: T2, Dcp2 (Saccharomyces cerevisiae); conditions: EMSA: 10 nM Alexa Fluor 647 RPL41A RNA, 300 mM KOAc, 10 mM MES pH 7 or 5.8, 5 mM BME, temperature not given in material
T2 sequence: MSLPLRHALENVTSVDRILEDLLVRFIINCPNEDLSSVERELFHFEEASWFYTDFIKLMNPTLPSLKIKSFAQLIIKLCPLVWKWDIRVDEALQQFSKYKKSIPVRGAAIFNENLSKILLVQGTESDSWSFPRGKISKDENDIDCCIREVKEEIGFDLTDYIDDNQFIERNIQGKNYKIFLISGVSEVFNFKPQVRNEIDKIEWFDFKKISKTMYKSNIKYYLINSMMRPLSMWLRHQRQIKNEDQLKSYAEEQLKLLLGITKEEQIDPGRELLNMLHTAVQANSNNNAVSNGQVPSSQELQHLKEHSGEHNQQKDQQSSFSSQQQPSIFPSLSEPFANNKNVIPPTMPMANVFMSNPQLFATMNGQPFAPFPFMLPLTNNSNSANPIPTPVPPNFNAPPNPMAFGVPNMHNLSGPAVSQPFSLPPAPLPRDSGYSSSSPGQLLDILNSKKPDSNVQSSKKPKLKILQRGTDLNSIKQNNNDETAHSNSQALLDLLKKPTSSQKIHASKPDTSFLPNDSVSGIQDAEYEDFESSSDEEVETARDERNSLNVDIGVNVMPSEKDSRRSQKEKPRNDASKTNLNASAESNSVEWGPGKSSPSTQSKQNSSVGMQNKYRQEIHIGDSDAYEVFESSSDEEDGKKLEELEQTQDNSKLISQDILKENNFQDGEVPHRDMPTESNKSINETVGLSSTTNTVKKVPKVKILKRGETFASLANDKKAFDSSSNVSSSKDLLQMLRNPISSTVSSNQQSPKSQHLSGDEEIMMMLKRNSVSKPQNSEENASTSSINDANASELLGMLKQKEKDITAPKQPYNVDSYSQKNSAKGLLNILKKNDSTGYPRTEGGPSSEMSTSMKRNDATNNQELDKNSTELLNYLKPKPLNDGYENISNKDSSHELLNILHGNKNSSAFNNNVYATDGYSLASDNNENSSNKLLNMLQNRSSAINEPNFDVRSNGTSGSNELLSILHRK

[3] = system: Dcp2 H237A (Saccharomyces cerevisiae); conditions: pH 5.8; EMSA: 10 nM Alexa Fluor 647 RPL41A RNA, 300 mM KOAc, 10 mM MES pH 7 or 5.8, 5 mM BME; temperature not given in material
[4] = system: T3, Dcp2 1-300 (Saccharomyces cerevisiae); conditions: EMSA: 10 nM Alexa Fluor 647 RPL41A RNA, 300 mM KOAc, 10 mM MES pH 7 or 5.8, 5 mM BME; temperature not given in material
T3 sequence: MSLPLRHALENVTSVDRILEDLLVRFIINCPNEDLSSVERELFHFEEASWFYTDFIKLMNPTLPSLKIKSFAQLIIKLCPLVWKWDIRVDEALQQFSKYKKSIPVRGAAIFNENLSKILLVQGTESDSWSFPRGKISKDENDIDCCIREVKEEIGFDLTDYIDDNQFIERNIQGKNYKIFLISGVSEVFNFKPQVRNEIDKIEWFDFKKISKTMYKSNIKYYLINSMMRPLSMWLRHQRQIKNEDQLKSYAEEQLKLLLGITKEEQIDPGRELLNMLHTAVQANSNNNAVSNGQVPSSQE

RPL41A RNA (60 nt)
Kd [1]: > 20 µM | binding signal (fold tighter at pH 5.8 than at pH 7) [2]: > 16 | binding signal (fold lower affinity than wild type) [3]: 2 | Kd [4]: > 20 µM

Reference: article PMC10083542
